Reference: patent US20030176382

Biological target: T1, synthetic peptide substrate ALERTFLSFPT
T1 chain: ALERTFLSFPT

B1: aspartyl proteinase purified from the adult hookworm Necator americanus (protein)
chain: GVYKIPLKRITPPMIKMLRAGTWETYVEGMRKRQLQLLKEHKVHIQDVLGYANMEYLGEITIGTPQQKFLVVLDTGSSNLWVPDDSCYKEKRPDRCLVSNCDAGLVCQVFCPDPKCCEHTREFKQVNACKDKHRFDQKNSNTYVKTNKTWAIAYGTGDARGFFGRDTVRLGAEGKDQLVINDTWFGQAEHIAEFFSNTFLDGILGLAFQELSEGGVAPPIIRAIDLGLLDQPIFTVYFENVGDKEGVYGGVFTWGGLDPDHCEDEVTYEQLTEATYWQFRLKGVSSKNFSSTAGWEAISDTGTSLNGAPRGILRSIARQYNGQYVASQGLYVVDCSKNVTVDVTIGDRNYTMTAKNLVLEIQADICIMAFFEMDMFIGPAWILGDPFIREYCNIHDIEKKRIGFAAVKH
In the case of B1, the “substrate specificity assay (cleavage of a synthetic peptide substrate)” value is reported as “the proteinase cleaved the synthetic peptide substrate ALERTFLSFPT (SEQ ID NO. 7)”.
